# Biological target: Kelch domain of human Keap1 (residues 321-609) (human), Q14145
# Experiment: ITC
# Kelch domain of human Keap1 (residues 321-609) (human), Q14145, sequence (Q14145 321-609): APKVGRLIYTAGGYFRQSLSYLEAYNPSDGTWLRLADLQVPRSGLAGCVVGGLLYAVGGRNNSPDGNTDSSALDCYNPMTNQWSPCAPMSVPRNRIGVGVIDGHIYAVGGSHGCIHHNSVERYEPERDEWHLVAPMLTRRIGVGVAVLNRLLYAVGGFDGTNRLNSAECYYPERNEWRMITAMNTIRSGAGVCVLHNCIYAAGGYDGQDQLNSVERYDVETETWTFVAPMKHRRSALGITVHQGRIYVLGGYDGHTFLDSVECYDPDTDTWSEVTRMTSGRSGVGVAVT
Kd [nM],dH [kcal/mol],stoichiometry N,Binder
23,-17,1.08,FAQLQLDEETGEFLPIQPAQ (modifications not checked) [NRF2 site 1 peptide (20-mer)]
1300,,,LSSKEVDPSTGELQSLQMPE (modifications not checked) [p62 peptide (20-mer)]
2620,-17.3,1.05,ANGNANEENGEQEADNEVDE (modifications not checked) [PTMA isoform 2 peptide (20-mer)]
11600,-14.7,1.07,ANGNAENEENGEQEADNEVD (modifications not checked) [PTMA isoform 1 peptide (20-mer)]
7,-16.8,,FAQLQLDPETGEFLPIQPAQ (modifications not checked) [NRF2 site 1 E78P peptide (20-mer)]

# Source: publication PMC3725505
